One block for each binder: values may come before it.
Legend:
[1] = biological target: human CLDN18.2 expressed on cells (human); test: cell-based or functional assay
[2] = biological target: T1, human CLDN18.2 expressed on cells (human); test: flow cytometry on CHO cells expressing huCLDN18.2, GAH-FITC secondary, percent FITC-positive cells
T1 construct: also called huCLDN18.2
Procedure: CHO cells expressing huCLDN18.2 were used to assess the binding of the antibodies. Cells were seeded at 5×10⁵ cells per 100 μl into a well of a 96-well plate for each sample. Then, 100 μl of each serially diluted antibody was added to the cells, each dilution started at 40 μg/ml and was diluted 5-fold. Therefore, the final concentration of each antibody starts at 20 μg/ml followed by a 5-fold serial dilution. After 1 hour, the cells were washed twice and 100 μl of GAH-FITC (1:200 dilution) was added to each well. After 30 minutes, the cells were washed twice and resuspended in 120 μl of FACS buffer. The cells were analyzed via flow cytometry.
Unstained cells were used as a reference to set up overall target cell gating and to establish the FITC-negative populations, allowing us to establish the FITC-positive cell gate for each cell line. Additionally, the mean fluorescence intensity (MFI) of the entire population of cells was calculated to secondarily validate the FITC-positive results. The ratio of the gated positive cell number to the total live cell number is taken as the percentage of positive cells.

[3] = biological target: T1, human CLDN18.2 expressed on cells; test: flow cytometry (geometric mean, Alexa Fluor 647 anti-human IgG Fc) on CLDN18.2-expressing 293T cells
[4] = biological target: T1, human CLDN18.2 expressed on cells; test: cell-based or functional assay; remark: listed apart in the source
[5] = biological target: T1, human CLDN18.2 expressed on cells; test: cell-based or functional assay; remark: listed apart in the source
[6] = biological target: T1, human CLDN18.2 expressed on cells; test: cell-based or functional assay; remark: listed apart in the source

B1: YL-G1-19-02 (antibody, human IgG1, kappa)
heavy: not shown
light: DIVMTQSPSSLTVTAGEKVTMSCKSSQSLLNSGNQKNYLTWYQQRPGQPPKLLIYWASTRESGVPVRFTGSGSGTDFTLTISSVQAEDLAVYYCQNAYIYPLTFGTGTKLELKRTVAAPSVFIFPPSDEQLKSGTASVVCLLNNFYPREAKVQWKVDNALQSGNSQESVTEQDSKDSTYSLSSTLTLSKADYEKHKVYACEVTHQGLSSPVTKSFNRGEC
ADCC (PBMC) on KATOIII CLDN18.2 cells, LDH: max (% cytotoxity) [1]: 19.9%

EC50 (read off the curve) [2]: ~0.3 ng/mL
B2: YL-G2-D (antibody, human IgG1, kappa)
heavy: QLQQSGPELEKPGASVKISCKASGYSFTGYKMNWVKQSNGESLEWIGNIDPYYGDTTYTQKFKGKATFTVDTSSSTAYMQLKSLTSEDSAVYFCARYNRGNTMDYWGQGTSVTVSSASTKGPSVFPLAPSSKSTSGGTAALGCLVKDYFPEPVTVSWNSGALTSGVHTFPAVLQSSGLYSLSSVVTVPSSSLGTQTYICNVNHKPSNTKVDKRVEPKSCDKTHTCPPCPAPELVGGPSVFLLPPKPKDTLMISRTPEVTCVVVDVSHEDPEVKFNWYVDGVEVHNAKTKPPEEQYNSTLRVVSVLTVLHQDWLNGKEYKCKVSNKALPAPIEKTISKAKGQPREPQVYTLPPSREEMTKNQVSLTCLVKGFYPSDIAVEWESNGQPENNYKTTPLVLDSDGSFFLYSKLTVDKSRWQQGNVFSCSVMHEALHNHYTQKSLSLSPGK
light: DIVMTQSPSSLTVTAGEKVTLSCKSSQSLLNSGNQKNYLTWYQQRPGQPPKLLIYWASTRESGVPVRFTGSGSGADFTLTISSVQAEDLAVYFCQNAYFYPLTFGTGTKLELRRTVAAPSVFIFPPSDEQLKSGTASVVCLLNNFYPREAKVQWKVDNALQSGNSQESVTEQDSKDSTYSLSSTLTLSKADYEKHKVYACEVTHQGLSSPVTKSFNRGEC
notes: Fc-engineered version of YL-G1-19-04 without the first two VH residues; also called Fc-engineered chimeric antibody

EC50 (read off the curve) [2]: ~0.6 ng/mL
B3: YL-G2-C (antibody, human IgG1, kappa)
heavy: QIQLVQSGPELRKPGETVKISCKASGFPFTTDGMSWVKQAPGKGLKWMGWINTYSGVPTYADDFKGRVAFSLETSASTAYLQIKNLKNEDTATYFCARFRRGNALDNWGQGTSVTVSSASTKGPSVFPLAPSSKSTSGGTAALGCLVKDYFPEPVTVSWNSGALTSGVHTFPAVLQSSGLYSLSSVVTVPSSSLGTQTYICNVNHKPSNTKVDKRVEPKSCDKTHTCPPCPAPELVGGPSVFLLPPKPKDTLMISRTPEVTCVVVDVSHEDPEVKFNWYVDGVEVHNAKTKPPEEQYNSTLRVVSVLTVLHQDWLNGKEYKCKVSNKALPAPIEKTISKAKGQPREPQVYTLPPSREEMTKNQVSLTCLVKGFYPSDIAVEWESNGQPENNYKTTPLVLDSDGSFFLYSKLTVDKSRWQQGNVFSCSVMHEALHNHYTQKSLSLSPGK
light: DIVMTQSPSSLTVTAGEKVTMSCKSSQSLLNSGNQKNYLTWYQQKPGQPPKLLIYWASTRESGVPDRFTGSGSGTDFTLTISSVQAEDLAIYYCQNNYFYPLTFGAGTRLELKRTVAAPSVFIFPPSDEQLKSGTASVVCLLNNFYPREAKVQWKVDNALQSGNSQESVTEQDSKDSTYSLSSTLTLSKADYEKHKVYACEVTHQGLSSPVTKSFNRGEC
notes: Fc-engineered version of YL-G1-19-03; also called Fc-engineered chimeric antibody

EC50 (read off the curve) [2]: ~0.6 ng/mL
B4: YL-G2-B (antibody, human IgG1, kappa)
heavy: EVQLQQSGPELEKPGASVKISCKASGYSFTGYKMNWVKQSNGKSLEWIGNIDPYYGGTTYNQKFKGKATLTVDKSSSTAYMQLKSLTSEDSAVYYCARYGKGNTMDYWGQGTSVTVSSASTKGPSVFPLAPSSKSTSGGTAALGCLVKDYFPEPVTVSWNSGALTSGVHTFPAVLQSSGLYSLSSVVTVPSSSLGTQTYICNVNHKPSNTKVDKRVEPKSCDKTHTCPPCPAPELVGGPSVFLLPPKPKDTLMISRTPEVTCVVVDVSHEDPEVKFNWYVDGVEVHNAKTKPPEEQYNSTLRVVSVLTVLHQDWLNGKEYKCKVSNKALPAPIEKTISKAKGQPREPQVYTLPPSREEMTKNQVSLTCLVKGFYPSDIAVEWESNGQPENNYKTTPLVLDSDGSFFLYSKLTVDKSRWQQGNVFSCSVMHEALHNHYTQKSLSLSPGK
light: DIVMTQSPSSLTVTAGEKVTMSCKSSQSLLNSGNQKNYLTWYQQRPGQPPKLLIYWASTRESGVPVRFTGSGSGTDFTLTISSVQAEDLAVYYCQNAYIYPLTFGTGTKLELKRTVAAPSVFIFPPSDEQLKSGTASVVCLLNNFYPREAKVQWKVDNALQSGNSQESVTEQDSKDSTYSLSSTLTLSKADYEKHKVYACEVTHQGLSSPVTKSFNRGEC
notes: also called YL-G2-B batch 1; YL-G2-B batch 2

EC50 (read off the curve) [3]: ~800 ng/mL | ADCC (PBMC) on NCI-N87 CLDN18.2 cells, LDH: EC50 (run A) [4]: 0.057 nM | ADCC (PBMC) on NCI-N87 CLDN18.2 cells, LDH: EC50 (run B) [4]: 0.082 nM | ADCC (PBMC) on NCI-N87 CLDN18.2 cells, LDH: EC50 (run C) [4]: 0.1 nM | CDC on KATOIII CLDN18.2 cells, LDH: EC50 (run A) [5]: ~38.1 nM | CDC on KATOIII CLDN18.2 cells, LDH: EC50 (run B) [5]: ~22.7 nM | CDC on KATOIII CLDN18.2 cells, LDH: EC50 (run C) [5]: ~27.5 nM | ADCC (PBMC) on KATOIII CLDN18.2 cells, LDH: EC50 (run A) [1]: 0.12 nM | ADCC (PBMC) on KATOIII CLDN18.2 cells, LDH: EC50 (run B) [1]: 0.22 nM | ADCC (PBMC) on KATOIII CLDN18.2 cells, LDH: EC50 (run C) [1]: 0.27 nM | CDC on CT26 CLDN18.2 cells, LDH: EC50 (run A) [6]: ~11.5 nM | CDC on CT26 CLDN18.2 cells, LDH: EC50 (run B) [6]: ~10.7 nM | CDC on CT26 CLDN18.2 cells, LDH: EC50 (run C) [6]: ~11.9 nM
B5: IMAB362 (Ganymed) (antibody, V domains shown)
VH: QVQLQQPGAELVRPGASVKLSCKASGYTFTSYWINWVKQRPGQGLEWIGNIYPSDSYTNYNQKFKDKATLTVDKSSSTAYMQLSSPTSEDSAVYYCTRSWRGNSFDYWGQGTTLTVSS
VL: DIVMTQSPSSLTVTAGEKVTMSCKSSQSLLNSGNQKNYLTWYQQKPGQPPKLLIYWASTRESGVPDRFTGSGSGTDFTLTISSVQAEDLAVYYCQNDYSYPFTFGSGTKLEIKR
